Experimental data from patent publication US20150267232A1, “IN VIVO AND IN VITRO CARBENE INSERTION AND NITRENE TRANSFER REACTIONS CATALYZED BY HEME ENZYMES” (California Institute of Technology, priority 2012, published 2015).

What was measured:
[1] = Intramolecular carbene C—H insertion, substrate 4.1a; format: biochemical
Experimental: (§1) Yield of product 4.22b was established after calibration with phenethyl alcohol as an internal standard. The reaction is not catalyzed by the WT-BM3 heme domain or hemin at 5% catalyst loading.
A representative procedure for P450-catalyzed C—H insertion is as follows: A vial containing WT-AxD (20 μL, 200 μM) was sealed with a teflon cap and the headspace of this vial was purged with argon for 5 min. Concurrently, a solution of sodium dithionite (11 mM in phosphate buffer pH=8) was degassed for a minimum of 5 min and 360 μL of this solution was transferred to the vial containing protein. The gas lines were disconnected from the vials. The substrate 4.1a or 4.1b was then added as a solution (20 μL, 200 mM). Final concentrations of all components were: 10 uM enzyme, 10 mM substrate, and 10 mM dithionite. […]
(§2) The mixture was extracted with 1 mL cyclohexane and analyzed by GC-MS or GC. GC-MS was performed on a Shimadzu TQ8030 GC-MS with ion count detector and J&W HP-5 column (30 m×0.32 mm, 0.25 μm film) using the following method: 90° C. (hold 2 min), 90-190° C. (20° C./min), and 190-230 (40° C./min)

[2] = Intramolecular carbene C—H insertion, substrate 4.1b; format: biochemical; conditions: 10 mM 4.1b, 10 uM P450, 10 mM Na2S2O4; product 4.2b
Experimental: as §1
A representative procedure for P450-catalyzed C—H insertion is as follows: A vial containing WT-AxD (20 μL, 200 μM) was sealed with a teflon cap and the headspace of this vial was purged with argon for 5 min. Concurrently, a solution of sodium dithionite (11 mM in phosphate buffer pH=8) was degassed for a minimum of 5 min and 360 μL of this solution was transferred to the vial containing protein. The gas lines were disconnected from the vials. The substrate 4.1a or 4.1b was then added as a solution (20 μL, 200 mM). Final concentrations of all components were: 10 uM enzyme, 10 mM substrate, and 10 mM dithionite. The reaction vials were then placed in a tray on a plate shaker and left to shake at 40 rpm for 12 h then 20 μL phenethyl alcohol (20 mM) was added as an internal standard.
as §2

B1: WT-AxD: WT heme domain + C400D (protein)
chain: TIKEMPQPKTFGELKNLPLLNTDKPVQALMKIADELGEIFKFEAPGRVTRYLSSQRLIKEACDESRFDKNLSQALKFVRDFAGDGLFTSWTHEKNWKKAHNILLPSFSQQAMKGYHAMMVDIAVQLVQKWERLNADEHIEVPEDMTRLTLDTIGLCGFNYRFNSFYRDQPHPFITSMVRALDEAMNKLQRANPDDPAYDENKRQFQEDIKVMNDLVDKIIADRKASGEQSDDLLTHMLNGKDPETGEPLDDENIRYQIITFLIAGHETTSGLLSFALYFLVKNPHVLQKAAEEAARVLVDPVPSYKQVKQLKYVGMVLNEALRLWPTAPAFSLYAKEDTVLGGEYPLEKGDELMVLIPQLHRDKTIWGDDVEEFRPERFENPSAIPQHAFKPFGNGQRADIGQQFALHEATLVLGMMLKHFDFEDHTNYELDIKETLSLKPKGFVVKAKSKKIPLGGIPSPST
modifications: synthetic cytochrome P450-BM3 variant WT-AxD (heme)
notes: WT heme domain + C400D
[1]; 10 mM 4.1a, 10 uM P450, 10 mM Na2S2O4, product 4.2a
  Yield %: 14%
[1]; substrates 4.1a and 4.1b, 10 μM variant or hemin at 5% catalyst loading, 16 h
  lactone formation via C—H bond insertion: lactone formation
[2]
  Yield %: 4%
